Measurements taken from patent JP2000166573A.

Target: 抗Fasモノクローナル抗体HFE7A (mouse anti-human Fas monoclonal antibody HFE7A, from hybridoma FERM BP-5828)
Assay: peptide (200 μg) preincubated with HFE7A (0.25 μg), then binding to WR19L12a cells by flow cytometry

| 結合阻害 (percent inhibition) [%] | Binder |
| --- | --- |
| 60 | KCRCKPNFFC [P110 (synthetic 10-residue peptide of the human Fas extracellular region)] |
| 50 | EINCTRTQNT [P100 (synthetic 10-residue peptide of the human Fas extracellular region)] |
